Assay results taken from publication PMC3969726.

How the values were obtained:
[1] = target: Orf18 ArdA protein expressed by the conjugative transposon Tn916 (conjugative transposon Tn916); experiment: SEC; Biosep-SEC-S3000 column; 20 mM Tris-HCl, 20 mM MES, 200 mM NaCl, 10 mM MgCl2, 0.1 mM EDTA, 7 mM 2-mercaptoethanol, pH 6.5; 25 °C; apparent molecular mass against injected monomer concentration, fitted to a monomer-dimer equilibrium; apparent constants; dimer to monomers
[2] = target: Bfr ArdA (ArdA protein from Bacteroides fragilis NCTC 9343, Orf BF1222) (Bacteroides fragilis NCTC 9343); experiment: as above
[3] = target: Mu50 ArdA (ArdA protein from Staphylococcus aureus Mu50, Orf SAV0405) (Staphylococcus aureus Mu50); experiment: as above
[4] = target: Ocr (Escherichia phage T7) (UniProt P03775); settings: cited from earlier work

Substance: Orf18 ArdA protein expressed by the conjugative transposon Tn916 (natural protein)
- Kd [1]: 2200 nM

Substance: Bfr ArdA (ArdA protein from Bacteroides fragilis NCTC 9343, Orf BF1222) (natural protein)
- Kd [2]: 360 nM

Substance: Mu50 ArdA (ArdA protein from Staphylococcus aureus Mu50, Orf SAV0405) (natural protein)
- Kd [3]: 3180 nM

Substance: EcoKI MTase (from UniProt P08957)
- Kd [4]: 0.05 nM
